The record followed here is publication PMC3274521, “Effects of a Non-Conservative Sequence on the Properties of β-glucuronidase from Aspergillus terreus Li-20” (PLoS ONE, 2012).

What is called Km is the concentration of substrate that gives half-maximal velocity. In general, Vmax refers to the top rate of the reaction or transport when substrate is in excess. The term kcat denotes the maximal rate divided by the concentration of active sites. A word on the kcat/Km: it is the second-order rate constant that governs catalysis at low substrate concentration.

The subject of this series is CC1(C)[C@@H](O[C@H]2O[C@H](C(=O)O)[C@@H](O)[C@H](O)[C@H]2O[C@@H]2O[C@H](C(=O)O)[C@@H](O)[C@H](O)[C@H]2O)CC[C@]2(C)[C@H]3C(=O)C=C4[C@@H]5C[C@@](C)(C(=O)O)CC[C@]5(C)CC[C@@]4(C)[C@]3(C)CC[C@@H]12. The experiment in a line: purified protein. The note with it: GL 0.375 to 4 mM, assay pH and temperature not stated for kinetics (optimum pH 6.6, 55 °C).

As for “AtGUS-E (AtGUS) (Aspergillus terreus NIH2624)”, the Km turned out to be 12.9 mM, the Vmax is 1.84 µmol/min/mg, the kcat came to 29 s⁻¹ and the kcat/Km came out at 2240 M⁻¹ s⁻¹.
